Data reported in the supplement of paper PMC10567573.

B1: PKD2L1 (parent)
chain: TLARCAKDILGFAVMFFIVFFAYA
B2: KCNAB2 (parent)
chain: YVDVVFANRPDPNTPMEETVRAMT

Variants of: B1
Assay: protein stability index of a GFP-peptide fusion (GPS, HEK-293T) (PSI 1-6); higher = more stable
Details: c terminus: a fixed tail appended
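Also: lentivirally expressed fusions sorted by FACS into six bins by GFP to DsRed ratio, PSI derived from sequencing read proportions per bin multiplied by bin number.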

Protein stability index, by site and new letter:
R4: V 4.36 | Y 3.28 | F 2.68 | N 2.79
G11: A 1.41 | R 2.72 | M 1.48 | V 1.74 | L 1.73 | I 2.79 | H 3.32
A6: C 2.87 | P 3.24 | W 2.75 | V 2.95 | Y 3.06 | L 4.57 | H 2.59 | T 3
T1: K 3.97 | I 2
L2: T 4.12 | R 3.68 | C 3.44 | E 2.8 | W 1.67
F21: K 2.1
D8: P 2.25 | V 2.33 | S 1.98 | G 2.75
C5: Q 2.29 | N 1.9 | D 2.61 | F 4.37 | M 3.55
Y23: I 1.51 | R 1.42 | L 2.34 | N 2.61
L10: N 1.82 | G 2.03 | I 2.42
A22: E 2.82 | P 4.08 | W 2.69 | T 1.83
I18: Q 1.54 | Y 3.2 | E 2 | D 3.03 | H 1.92
F16: G 2.71 | E 3.1 | P 1.96
V14: F 2.3 | E 2.48 | I 1.86 | Y 3.2 | K 3.08 | C 2.86
A13: Q 2.25 | L 2.63 | G 2.06
M15: I 3.37 | N 1.32 | W 2.5 | H 2.17 | A 2.27
F17: V 2.44 | K 2.06 | M 1.84
F12: H 1.93 | E 1.44 | S 1.89 | W 3.56 | P 2.87 | G 2.56
I9: G 2.66 | N 1.69 | K 1.22 | A 2.44 | S 2.6
K7: V 4.08 | H 3.13 | I 2.36
A3: R 1.81 | T 3.62 | Q 2.7 | D 2.56 | V 1.94
A24: C 1.23 | Q 2.42 | D 2.9 | R 1.45 | L 3.01 | Y 3.62 | V 1.63
V19: Q 3.48 | T 2.69 | R 2.36 | P 2.99
F20: S 2.46 | Q 3.46 | Y 2.46

Variants of: B2
Assay: as above
Details: c terminus: a fixed tail appended

Protein stability index: each site, then its substitutions
T14: D 1.69 | H 2.77 | A 1.84 | F 2.32 | N 3.02 | W 1.54 | I 3.12 | L 2.37 | Y 2.4 | M 2.65 | S 1.93 | R 2.23 | E 1.7 | G 2.04 | P 2.51 | K 2.2 | C 1.99 | Q 2.12 | V 1.56
E17: W 3.15 | I 1.58 | L 1.64 | C 1.62 | R 2.29 | K 2.62 | G 2.72 | Y 2.5 | P 2.17 | T 2.84 | M 2.65 | Q 2.14 | A 1.86 | N 2.76 | V 2.06 | H 2.85 | S 1.2 | D 2.12
T24: E 1.86 | H 1.74 | V 1.47 | D 1.46 | R 1.78 | Q 2.09 | L 1.8 | N 1.5 | P 2.24 | K 1.82 | G 1.35 | C 1.98 | W 2.72 | Y 2.46 | M 2.18 | I 1.78 | F 3.03 | S 1.88
P12: V 2.72 | W 2.04 | Y 2.72 | T 1.56 | S 1.66
P15: N 1.97 | R 2.52 | K 2.72 | Y 2.21 | G 1.91 | D 1.49 | A 2.34 | T 1.94 | F 2.47 | E 1.73 | S 2.69 | I 1.9 | C 2.67 | W 1.78 | Q 2.1 | H 1.35 | L 2.44 | M 2.28 | V 1.87
T19: Q 1.9 | F 1.66 | S 1.93 | N 2 | P 1.61 | M 1.79 | V 2.01 | L 1.89 | C 1.46 | W 1.85 | G 1.9 | R 1.66 | A 1.86 | K 2.41 | H 2.1 | E 1.71 | Y 1.62 | D 2.07 | I 1.85
M23: K 1.82 | P 2.14 | H 1.66 | N 1.8 | I 1.82 | A 2.16 | W 2.06 | L 2.57 | V 1.78 | E 1.86 | C 2.04 | R 2.81 | S 1.58 | Q 1.41 | D 1.61 | F 2.03 | Y 2.13 | G 1.56
A22: P 1.69 | I 1.72 | W 2.49 | Y 1.73 | T 1.33 | C 2.26 | V 2.29 | D 2.67 | Q 1.85 | M 2.32 | K 2.08 | E 1.6 | L 1.98 | G 1.74 | H 2.27 | S 1.76 | F 2.28 | N 2.13 | R 1.89
R21: Q 2.18 | C 1.5 | P 2.1 | N 2.33 | M 1.56 | L 2.64 | A 1.84 | K 2.35 | D 1.56 | G 2.37 | E 2.27 | V 1.58 | Y 1.87 | S 1.77 | I 2.15 | T 1.96 | H 2.22 | W 2.27 | F 2.78
V20: E 1.76 | L 2.58 | K 1.59 | Q 1.82 | W 2.74 | G 2.07 | T 1.81 | P 1.86 | C 1.99 | M 1.71 | H 1.81 | F 1.64 | R 1.82 | Y 1.8 | S 2.06 | D 1.76 | A 1.82 | N 1.92 | I 1.87
N13: H 2.15 | T 1.3 | F 2.09 | L 1.96 | W 2.88 | I 2.76 | S 2.34 | E 2.5 | A 2 | G 2.14 | C 1.89 | D 2.29 | Y 2.31 | R 1.98 | Q 2.11 | K 2.18 | M 1.98 | V 2.44
M16: N 2.2 | A 1.8 | G 1.95 | H 1.93 | L 1.86 | W 2.2 | I 1.64 | P 1.91 | F 1.77 | K 1.8 | T 1.33 | S 2.42 | Q 2.27 | R 2.54 | Y 2.18 | E 2.02 | D 1.77 | C 1.82 | V 1.65
E18: I 2.98 | V 2.43 | K 2.75 | A 2.67 | D 2.04 | H 2.97 | F 2.1 | G 1.75 | N 1.83 | Q 2.09 | S 1.99 | R 2.1 | W 1.85 | M 3.06 | P 2.27 | C 2.02 | L 2.56 | T 1.64 | Y 2.64
